The record followed here is publication PMC4979867, “Reconstitution of the membrane protein OmpF into biomimetic block copolymer–phospholipid hybrid membranes” (Beilstein Journal of Nanotechnology, 2016).

By stoichiometry N is commonly meant a count of units in the complex or per binding partner.

The series concerns the molecule itself. Briefly: SDS-PAGE of the unboiled sample; purified OmpF in 1% octyl-POE, sample not boiled before SDS-PAGE.

B1: outer membrane protein OmpF from Escherichia coli (natural protein, UniProt P02931 23-362, looked up)
chain: AEIYNKDGNKVDLYGKAVGLHYFSKGNGENSYGGNGDMTYARLGFKGETQINSDLTGYGQWEYNFQGNNSEGADAQTGNKTRLAFAGLKYADVGSFDYGRNYGVVYDALGYTDMLPEFGGDTAYSDDFFVGRVGGVATYRNSNFFGLVDGLNFAVQYLGKNERDTARRSNGDGVGGSISYEYEGFGIVGAYGAADRTNLQEAQPLGNGKKAEQWATGLKYDANNIYLAANYGETRNATPITNKFTNTSGFANKTQDVLLVAQYQFDFGLRPSIAYTKSKAKDVEGIGDVDLVNYFEVGATYYFNKNMSTYVDYIINQIDSDNKLGVGSDDTVAVGIVYQF
notes: Outer membrane porin OmpF, Escherichia coli, native protein from strain B^E BL21(DE3)omp6 (lacks LamB and OmpC); no residues or identifiers printed; The protein here comes from an E. coli B strain, whose OmpF may differ from it at a few positions; also called native OmpF protein
As to B1, the “stoichiometry N” value came out at 3.
